Substitutions are numbered along the chain they refer to. Bounds are passed on as bounds.

B1: AC_05079 (antibody, human IgG1, kappa, V domains shown)
VH: EVQLLESGGGLVQPGGSLRLSCAASGFTFSSSYMGWVRQAPGKGLEWVSSIGSGSYSTSYADSVKGRFTISRDNSKNTLYLQMNSLRAEDTAVYYCARYPSVPFPPPLDYWGQGTLVTVSS
VL: DIQMTQSPSSLSASVGDRVTITCRASQSISSYLNWYQQKPGKAPKLLIYAASSLQSGVPSRFSGSGSGTDFTLTISSLQPEDFATYYCQQAGNPHTFGQGTKLEIKR
B2: AC_05086 (antibody, V domains shown)
VH: B1 VH with R98H, P107H
VL: DIQMTQSPSSLSASVGDRVTITCRASQSISSYLNWYQQKPGKAPKLLIYAASSLQSGVPSRFSGSGSGTDFTLTISSLQPEDFATYYCQQAGNPHTFGQGTKLEIK
B3: AC_05081 (antibody, human IgG1, kappa, V domains shown)
VH: B1 VH with P105Q, P107H
VL: B1 VL
B4: AC_05080 (antibody, V domains shown)
VH: B1 VH with P107L
VL: B2 VL
B5: AC_05093 (antibody, human IgG1, kappa, V domains shown)
VH: B1 VH with P107H, L108V
VL: B1 VL
B6: AC_05088 (antibody, human IgG1, kappa, V domains shown)
VH: B1 VH with P103L, P107H
VL: B1 VL
B7: AC_05094 (antibody, human IgG1, kappa, V domains shown)
VH: B1 VH with P107H, L108W
VL: B1 VL
B8: AC_05091 (antibody, human IgG1, kappa, V domains shown)
VH: B1 VH with P107H, L108F
VL: B1 VL
B9: AC_05090 (antibody, human IgG1, kappa, V domains shown)
VH: B1 VH with P106L, P107H
VL: B1 VL
B10: AC_05089 (antibody, human IgG1, kappa, V domains shown)
VH: B1 VH with P106H, P107H
VL: B1 VL
B11: AC_05097 (antibody, human IgG1, kappa, V domains shown)
VH: B1 VH with P105S, P107H
VL: B1 VL
B12: AC_05099 (antibody, V domains shown)
VH: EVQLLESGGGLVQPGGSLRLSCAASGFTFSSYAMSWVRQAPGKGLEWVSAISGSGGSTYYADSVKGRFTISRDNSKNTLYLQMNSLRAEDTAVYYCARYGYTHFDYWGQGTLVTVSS
VL: B2 VL
B13: AC_05059 (antibody, human IgG1, kappa, V domains shown)
VH: B1 VH with P107H
VL: B1 VL
B14: Multi42 (bispecific antibody, human IgG1, kappa, L234A L235A)
chain 1: not shown
chain 2: EIVLTQSPGTLSLSPGERATLSCRASQSVSSSYLAWYQEKPGQAPRLLIYGASSRATGIPDRFSGSGSGTDFTLTISRLEPEDFAVYYCQQYWYPLTFGQGTKLEIKRTVAAPSVFIFPPSDEQLKSGTASVVCYLNNFYPREAKVQWKVDNALQSGNSQESVTEQDSKDSTYSLWSTLTLSKADYEKHKVYACEVTHQGLSSPVTKSFNRGEC
chain 3: EVQLLESGGGLVQPGGSLRLSCAASGFTFSTYGMHWVREAPGKGLEWLSYISGGSSYIFYADSVKGRFTISRDNSKNTLYLQMNSLRAEDTAVYYCARILRGGSGMDLWGQGTLVTVSSASTKGPSVFPLAPSSKSTSGGTAALGCLVKDYFPEPVTVSWNSGALTSGVHTFPAVLQSSGLYSLTSVVEVPSSSLGTQTYICNVNHKPSNTKVDKKVEPKSC

One assay concerns the target T1, human CEACAM5, recombinant (R&D Systems #4128-CM-050) (human, UniProt P06731 35-685).
T1 construct: Bought; coated in ELISA and used as monomeric analyte in Octet; also called hCEACAM-5; Human CEACAM5-His; not shown: His tag
T1 sequence (looked up): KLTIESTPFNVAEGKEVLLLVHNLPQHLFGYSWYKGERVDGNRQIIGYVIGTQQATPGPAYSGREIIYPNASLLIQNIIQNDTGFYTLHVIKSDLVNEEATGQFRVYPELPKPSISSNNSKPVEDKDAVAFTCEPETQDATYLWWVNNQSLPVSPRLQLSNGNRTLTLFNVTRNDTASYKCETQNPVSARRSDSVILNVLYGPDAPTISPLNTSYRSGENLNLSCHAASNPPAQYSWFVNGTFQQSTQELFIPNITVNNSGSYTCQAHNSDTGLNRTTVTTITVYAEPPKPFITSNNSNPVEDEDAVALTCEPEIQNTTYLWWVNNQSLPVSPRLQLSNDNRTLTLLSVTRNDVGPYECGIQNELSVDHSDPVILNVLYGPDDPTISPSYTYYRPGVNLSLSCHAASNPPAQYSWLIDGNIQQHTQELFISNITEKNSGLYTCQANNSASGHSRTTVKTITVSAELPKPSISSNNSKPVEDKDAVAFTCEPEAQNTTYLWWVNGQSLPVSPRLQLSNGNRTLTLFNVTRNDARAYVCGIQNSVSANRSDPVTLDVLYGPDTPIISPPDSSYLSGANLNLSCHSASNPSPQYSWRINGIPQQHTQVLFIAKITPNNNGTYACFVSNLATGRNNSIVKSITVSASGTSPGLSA
Put plainly: ELISA, antigen coated at 0.5 µg/mL, IgG1 antibody at 10 µg/ml, anti-human kappa-HRP, luminescence. The procedure: (§1) 96-well plates were coated with 0.5 μg/mL antigen, hCEACAM-5 (4128-CM-050, R&D Systems), hCEACAM-1 (2244-CM-050, R&D Systems), hCEACAM-6(3934-CM-050, R&D Systems) or CEACAM-8 (9639-CM-050, R&D Systems) in PBS over night at 4° C. After washing with PBS/0.05% Tween 20 (PBST), the plates were blocked with PBST, 2% BSA for at least 30 minutes at room temperature before a second round of washing. […] After washing, plates were incubated with 50 μl detection antibody (0.5 μg/ml HRP conjugated goat anti human-kappa light chain, #STAR127P, AbD Serotec). Finally, a final round of washing was performed and bound complexes detected using SuperSignal Pico Luminescent as substrate and luminescence signals were measured using Fluostar Optima.
On to B1, for which the binding result is recorded as “binds”.
On the same count and under the same terms, under B2 stands “binds”.

The next assay concerns the target T2, human CEACAM1, recombinant (R&D Systems #2244-CM-050) (human, UniProt P13688 35-428).
T2 construct: also called hCEACAM-1
T2 sequence (looked up): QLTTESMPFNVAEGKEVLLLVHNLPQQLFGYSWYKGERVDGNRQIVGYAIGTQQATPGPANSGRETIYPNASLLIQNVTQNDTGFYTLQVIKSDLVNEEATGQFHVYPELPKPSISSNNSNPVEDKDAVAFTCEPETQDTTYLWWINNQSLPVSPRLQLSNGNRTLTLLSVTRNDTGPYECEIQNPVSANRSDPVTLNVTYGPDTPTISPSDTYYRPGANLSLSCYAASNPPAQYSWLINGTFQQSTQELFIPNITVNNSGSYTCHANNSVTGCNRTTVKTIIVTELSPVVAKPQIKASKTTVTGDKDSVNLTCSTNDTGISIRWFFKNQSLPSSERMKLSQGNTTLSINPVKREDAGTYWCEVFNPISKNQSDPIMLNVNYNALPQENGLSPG
The description is as above. The method, then:
as §1
Consider B3, for which the binding result is reported as “no binding (tested: 10 µg/ml)”.
As to B4, the binding result is on record as “binds”.
Regarding B5, the binding result is recorded as “no binding (tested: 10 µg/ml)”.
For the molecule B6, the binding result was “no binding (tested: 10 µg/ml)”.
The same measure, in the same setting: to B1 belongs “no binding (tested: 10 µg/ml)”; to B7, “no binding (tested: 10 µg/ml)”.
Turning to B2, the binding result is “binds”.
Take B8: the binding result is on record as “no binding (tested: 10 µg/ml)”.
As to B9, the binding result is on record as “no binding (tested: 10 µg/ml)”.
As to B10, the binding result is reported as “no binding (tested: 10 µg/ml)”.
Same read-out and setting: to B11 belongs “no binding (tested: 10 µg/ml)”; to B12, “no binding (tested: 10 µg/ml)”.

The target in a further assay is T1, human CEACAM5, recombinant (R&D Systems …). Put plainly: Octet BLI, IgG1 captured on AHC tips, CEACAM5-His in solution, 1:1 fit. The method, then: Kinetic measurements were performed in the Octet RED96 platform using several different setups. Monoclonal antibodies (listed in Table 9), serially diluted ½ starting at 100 nM, were captured to anti human IgG Fc Capture (AHC) Biosensor tips (Sartorius #18-5060). Human CEACAM5-His (R&D Systems #4128-CM-050) diluted in 1× kinetic buffer (Sartorius) at 100 nM was then added. Binding kinetics was studied in 1× kinetic buffer where association was allowed for 300 sec followed by dissociation for 600 sec. Sensor tips were regenerated with 10 mM Glycine pH 1.7. Data generated were referenced by subtracting blank or parallel buffer blank, the baseline was aligned to the y-axis, inter-step correction by alignment against dissociation was performed and the data was smoothed by Savitzky-Golay filter in the data analysis software (v9.0.0.14). The processed data was fitted using a 1:1 Langmuir binding model with R² or X² as a measurement of fitting accuracy.
On to B3, for which the equilibrium dissociation constant (Kd) was 100 nM, the koff is 0.008 s⁻¹ and the kon came to 60000 M⁻¹ s⁻¹.
Consider B4, for which the Kd stood at 0.008 nM, the koff is 2e-06 s⁻¹ and the association rate constant (kon) is 200000 M⁻¹ s⁻¹.
The like results for B13 were, in that order, under 0.001 nM, under 1e-07 s⁻¹ and 300000 M⁻¹ s⁻¹.
For B5 the same measures were 0.4 nM, 0.0001 s⁻¹ and 300000 M⁻¹ s⁻¹.
For the molecule B6, the dissociation constant Kd worked out at 20 nM, the koff amounted to 0.03 s⁻¹ and the kon stood at 1e+06 M⁻¹ s⁻¹.
Regarding B7, the Kd amounted to 50 nM, the koff amounted to 0.0008 s⁻¹ and the on-rate constant (kon) stood at 20000 M⁻¹ s⁻¹.
In the case of B8, the dissociation constant (Kd) turned out to be 2 nM, the off-rate (koff) was found to be 0.0003 s⁻¹ and the on-rate constant (kon) was found to be 200000 M⁻¹ s⁻¹.
Regarding B9, the Kd came to 20 nM, the koff turned out to be 0.004 s⁻¹ and the on-rate constant (kon) worked out at 300000 M⁻¹ s⁻¹.
With B10, the Kd was determined as 40 nM, the dissociation rate constant (koff) stood at 0.01 s⁻¹ and the on-rate constant (kon) was 300000 M⁻¹ s⁻¹.
B11: the dissociation constant (Kd) came to 0.07 nM, the koff worked out at 2e-05 s⁻¹ and the association rate constant (kon) is 200000 M⁻¹ s⁻¹.

In another assay the target is human CD40 expressed on cells (CD40 reporter cells, HEK Blue CD40L cells, primary B cells, tumour APCs) (human, UniProt P25942 21-277). Put plainly: cell-based or functional assay.
Chain of human CD40 expressed on cells (CD40 reporter cells, HEK Blue CD40L cells, primary B cells, tumour APCs) (P25942 21-277): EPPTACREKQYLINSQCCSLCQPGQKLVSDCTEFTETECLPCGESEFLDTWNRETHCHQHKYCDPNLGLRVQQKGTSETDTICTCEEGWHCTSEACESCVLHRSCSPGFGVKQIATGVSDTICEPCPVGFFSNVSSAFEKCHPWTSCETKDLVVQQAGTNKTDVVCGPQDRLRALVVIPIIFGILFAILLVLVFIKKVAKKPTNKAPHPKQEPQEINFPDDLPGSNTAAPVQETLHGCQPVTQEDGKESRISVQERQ
For B14, the “EC50 of SEAP release, HEK Blue CD40L reporter cells, bsAb crosslinked to CHO-CEACAM5 cells, 0 Raji sink cells/well” value turned out to be 0.04 nM; the “EC50 of SEAP release, same assay, 10 000 Raji sink cells/well” value was 0.06 nM; the “EC50 of SEAP release, same assay, 30 000 Raji sink cells/well” value was found to be 0.11 nM; the “EC50 of SEAP release, same assay, 90 000 Raji sink cells/well” value amounted to 0.36 nM.

Source of the values: patent US20260146107A1 (ALLIGATOR BIOSCIENCE, published 2026).
